According to US20250382384A1 (BEONE MEDICINES I, published 2025):
Where a chain is given by its changes, count along the chain named.

T1: human MUC1 SEA domain protein (human, UniProt P15941 1036-1155)
T1 construct: also called HuMUC1-SEA; huMUC1 SEA
T1 sequence: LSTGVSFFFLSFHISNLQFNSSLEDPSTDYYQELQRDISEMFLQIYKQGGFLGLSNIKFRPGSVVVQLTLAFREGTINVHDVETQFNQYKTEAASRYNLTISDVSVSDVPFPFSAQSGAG

B1: BG138P-Bz0 (antibody, human IgG1, V domains shown)
VH: QVQLVQSGAEVKKPGASVKVSCKASGYTFTTYTMHWIKQAPGQGLEWIGYINPGSDYTHYNQKFKDKATLTADKSASTAYMELYSLRSEDTAVYYCARQGNYAAYYFDYWGQGTLVTVSS
VL: DIQMTQSPSSLSASVGDRVTITCRASGNIHNFLVWYQQKPGKSPKLLVYNAKTLTDGVPSRFSGSGSGTQYSLTISSLQPEDVATYYCQNFWNVPFTFGSGTKLEIK
notes: human IgG1/Ckappa
B2: BG138P-Hz0 (antibody, human IgG1, V domains shown)
VH: B1 VH with I37V, K38R, G44R, I48M, K67R, A68V, L70I, A72R, K74T, Y84S
VL: B1 VL with S43V, V48I, Q70D, Y71F, S72T, S100Q
notes: human IgG1/Ckappa
B3: BG138P-Bz1 (antibody, human IgG1, V domains shown)
VH: B1 VH with I37V
VL: B1 VL
notes: human IgG1/Ckappa
B4: BG138P-Bz15 (antibody, human IgG1, V domains shown)
VH: B1 VH
VL: B1 VL with S72T
notes: human IgG1/Ckappa
B5: BG138P-Bz3 (antibody, human IgG1, V domains shown)
VH: B1 VH with G44R
VL: B1 VL
notes: human IgG1/Ckappa
B6: BG138P-Bz14 (antibody, human IgG1, V domains shown)
VH: B1 VH
VL: B1 VL with Y71F
notes: human IgG1/Ckappa
B7: BG138P-Bz4 (antibody, human IgG1, V domains shown)
VH: B1 VH with I48M
VL: B1 VL
notes: human IgG1/Ckappa
B8: BG138P-Bz12 (antibody, human IgG1, V domains shown)
VH: B1 VH
VL: B1 VL with V48I
notes: human IgG1/Ckappa
B9: BG138P-Bz11 (antibody, human IgG1, V domains shown)
VH: B1 VH
VL: B1 VL with S43V
notes: human IgG1/Ckappa
B10: BG138P-Bz10 (antibody, human IgG1, V domains shown)
VH: B1 VH with Y84S
VL: B1 VL
notes: human IgG1/Ckappa
B11: BG138P-Bz5 (antibody, human IgG1, V domains shown)
VH: B1 VH with K67R
VL: B1 VL
notes: human IgG1/Ckappa
B12: BG138P-Bz16 (antibody, human IgG1, V domains shown)
VH: B1 VH
VL: B1 VL with S100Q
notes: human IgG1/Ckappa
B13: BG138P-Bz9 (antibody, human IgG1, V domains shown)
VH: B1 VH with K74T
VL: B1 VL
notes: human IgG1/Ckappa
B14: BG138P-Bz8 (antibody, human IgG1, V domains shown)
VH: B1 VH with A72R
VL: B1 VL
notes: human IgG1/Ckappa
B15: BG138P-Bz6 (antibody, human IgG1, V domains shown)
VH: B1 VH with A68V
VL: B1 VL
notes: human IgG1/Ckappa
B16: BG138P-Bz13 (antibody, human IgG1, V domains shown)
VH: B1 VH
VL: B1 VL with Q70D
notes: human IgG1/Ckappa
B17: BG138P-Bz2 (antibody, human IgG1, V domains shown)
VH: B1 VH with K38R
VL: B1 VL
notes: human IgG1/Ckappa
B18: BG138P-Bz7 (antibody, human IgG1, V domains shown)
VH: B1 VH with L70I
VL: B1 VL
notes: human IgG1/Ckappa
B19: huBG138P-Hz4 (antibody, V domains shown)
VH: B1 VH with I37V, K38R, I48M, K67R, A68V, L70I, Y84S
VL: B1 VL with V48I, D56S, S72T, S100Q
notes: humanized; constant regions not restated
B20: huBG138P-Hz1 (antibody, V domains shown)
VH: B1 VH with I37V, K38R, G44R, I48M, K67R, A68V, L70I, K74T, Y84S
VL: B1 VL with S43V, V48I, D56S, Q70D, S72T, S100Q
notes: humanized; constant regions not restated (IgG1/Ckappa vector used for the first round)
B21: huBG138P-Hz3 (antibody, V domains shown)
VH: B1 VH with I37V, K38R, I48M, K67R, A68V, L70I, Y84S
VL: B1 VL with S43V, V48I, D56S, Q70D, S72T, S100Q
notes: as for B19

The binders below were run against T1, human MUC1 SEA domain protein (assay: SPR (Biacore 2000), antibody captured, huMUC1 SEA analyte, 1:1 binding).

Row | Kd [nM] | Binder
1 | 0.464 | B1
2 | 0.527 | B2
3 | 0.503 | B3
4 | 0.493 | B4
5 | 0.532 | B5
6 | 0.608 | B6
7 | 0.488 | B7
8 | 0.501 | B8
9 | 0.513 | B9
10 | 0.448 | B10
11 | 0.475 | B11
12 | 0.466 | B12
13 | 0.476 | B13
14 | 0.608 | B14
15 | 0.518 | B15
16 | 0.453 | B16
17 | 0.453 | B17
18 | 0.407 | B18

What follows are binders tested against T1, human MUC1 SEA domain protein (assay: SPR, antibody captured, huMUC1 SEA analyte).

Row | Binder | Kd [nM]
19 | B19 | 0.223
20 | B20 | 0.241
21 | B21 | 0.242
